Experiments:
mono-ubiquitin = target: T1, mono-ubiquitin (UniProt P0CG47 1-76); test: ITC; ubiquitin samples (200–500 μM) titrated into USP11 samples (20–30 μM); 50 mM Tris-Cl, pH 7.5, 150 mM NaCl, 1% (v/v) glycerol; 25 °C; one-site binding model; details: both partners purified
T1 construct: ubiquitin (the reaction product, residues 1-76); also called product ubiquitin; source: E. coli BL21(DE3)-Codon Plus; purification of the ubiquitin constructs not described

linear diubiquitin = target: T2, linear diubiquitin (UniProt P0CG47 1-76; P0CG47 1-76); test: as above; details: both partners purified
T2 construct: ubiquitin, distal moiety (residues 1-76); ubiquitin, proximal moiety, its Met1 (Met77 of the chain) joined by a peptide bond to Gly76 of the distal moiety; source: E. coli BL21(DE3)-Codon Plus; purification of the ubiquitin constructs not described

Binder | Kd (mono-ubiquitin) [nM] | binding result (linear diubiquitin)
USP11-D1D2 (enzyme, human, USP11, human, catalytic subdomain D1, residues Met295-Pro489; numbering of UniProt P51784; linker that replaces the insertion between subdomains D1 and D2; USP11, human, catalytic subdomain D2, residues Pro778-Leu937; also called USP11 catalytic core; USP11 catalytic domain; source: E. coli BL21(DE3)-Codon Plus, purified (Ni2+ HiTrap chelating column, SEC Superdex 200); not shown: His tag (from …)) MSEEDEDFKGQPGICGLTNLGNTCFMNSALQCLSNVPQLTEYFLNNCYLEELNFRNPLGMKGEIAEAYADLVKQAWSGHHRSIVPHVFKNKVGHFASQFLGYQQHDSQELLSFLLDGLHEDLNRVKKKEYVELCDAAGRPDQEVAQEAWQNHKRRNDSVIVDTFHGLFKSTLVCPDCGNVSVTFDPFCYLSVPLPASTSKPVRLQECIELFTTVETLEKENPWYCPSCKQHQLATKKLDLWMLPEILIIHLKRFSYTKFSREKLDTLVEFPIRDLDFSEFVIQPQNESNPELYKYDLIAVSNHYGGMRDGHYTTFACNKDSGQWHYFDDNSVSPVNENQIESKAAYVLFYQRQDVARRLL | ~3500 | –
USP11-D1D2 H399Q (enzyme, human, USP11, human, catalytic subdomain D1, residues Met295-Pro489; numbering of UniProt P51784; linker that replaces the insertion between subdomains D1 and D2; USP11, human, catalytic subdomain D2, residues Pro778-Leu937; source: E. coli BL21(DE3)-Codon Plus, purified (Ni2+ HiTrap chelating column, SEC Superdex 200); not shown: His tag (from the Ni2+ chelating column)) MSEEDEDFKGQPGICGLTNLGNTCFMNSALQCLSNVPQLTEYFLNNCYLEELNFRNPLGMKGEIAEAYADLVKQAWSGHHRSIVPHVFKNKVGHFASQFLGYQQQDSQELLSFLLDGLHEDLNRVKKKEYVELCDAAGRPDQEVAQEAWQNHKRRNDSVIVDTFHGLFKSTLVCPDCGNVSVTFDPFCYLSVPLPASTSKPVRLQECIELFTTVETLEKENPWYCPSCKQHQLATKKLDLWMLPEILIIHLKRFSYTKFSREKLDTLVEFPIRDLDFSEFVIQPQNESNPELYKYDLIAVSNHYGGMRDGHYTTFACNKDSGQWHYFDDNSVSPVNENQIESKAAYVLFYQRQDVARRLL | ~2000 | –
USP11-D1D2 R885G (enzyme, human, USP11, human, catalytic subdomain D1, residues Met295-Pro489; numbering of UniProt P51784; linker that replaces the insertion between subdomains D1 and D2; USP11, human, catalytic subdomain D2, residues Pro778-Leu937; source: E. coli BL21(DE3)-Codon Plus, purified (Ni2+ HiTrap chelating column, SEC Superdex 200); not shown: His tag (from the Ni2+ chelating column)) MSEEDEDFKGQPGICGLTNLGNTCFMNSALQCLSNVPQLTEYFLNNCYLEELNFRNPLGMKGEIAEAYADLVKQAWSGHHRSIVPHVFKNKVGHFASQFLGYQQHDSQELLSFLLDGLHEDLNRVKKKEYVELCDAAGRPDQEVAQEAWQNHKRRNDSVIVDTFHGLFKSTLVCPDCGNVSVTFDPFCYLSVPLPASTSKPVRLQECIELFTTVETLEKENPWYCPSCKQHQLATKKLDLWMLPEILIIHLKRFSYTKFSREKLDTLVEFPIRDLDFSEFVIQPQNESNPELYKYDLIAVSNHYGGMGDGHYTTFACNKDSGQWHYFDDNSVSPVNENQIESKAAYVLFYQRQDVARRLL | 1100 | –
USP11-D1D2 C318S/D886G (enzyme, human, USP11, human, catalytic subdomain D1, residues Met295-Pro489; numbering of UniProt P51784; linker that replaces the insertion between subdomains D1 and D2; USP11, human, catalytic subdomain D2, residues Pro778-Leu937; Made from the USP11-D1D2 C318S template; source: E. coli BL21(DE3)-Codon Plus, purified (Ni2+ HiTrap chelating column, SEC Superdex 200); not shown: His tag (from the Ni2+ chelating …)) MSEEDEDFKGQPGICGLTNLGNTSFMNSALQCLSNVPQLTEYFLNNCYLEELNFRNPLGMKGEIAEAYADLVKQAWSGHHRSIVPHVFKNKVGHFASQFLGYQQHDSQELLSFLLDGLHEDLNRVKKKEYVELCDAAGRPDQEVAQEAWQNHKRRNDSVIVDTFHGLFKSTLVCPDCGNVSVTFDPFCYLSVPLPASTSKPVRLQECIELFTTVETLEKENPWYCPSCKQHQLATKKLDLWMLPEILIIHLKRFSYTKFSREKLDTLVEFPIRDLDFSEFVIQPQNESNPELYKYDLIAVSNHYGGMRGGHYTTFACNKDSGQWHYFDDNSVSPVNENQIESKAAYVLFYQRQDVARRLL | – | binds

From article PMC10637973 (The Journal of Biological Chemistry, 2023)
